The values that follow are results of earlier work, collected in paper PMC10813008.

In one data set the target is His54 (UniProt position 54, KGSCFHRIIPG). As to the kind of experiment: NMR. As to conditions: not stated (ref 75 studied forms with and without immunosuppressant ligands; the review does not say which form the limit refers to).
In another data set the target is His25 (UniProt position 26, QTCVVHYTGML). As to the kind of experiment: NMR. Particulars: not stated (ref 75 studied forms with and without immunosuppressant ligands; the review does not say which form the limit refers to).
The next data set concerns the target His119 (UniProt position 145, PYVPVHFDASV). The experiment in a line: mass spectrometry.
In a further data set the target is His12 (UniProt position 38, KFERQHMDSST). As to the kind of experiment: mass spectrometry.
Another data set deals with His61 (UniProt position 92, RYQMDHGARIF). As to the kind of experiment: NMR.
Another data set concerns the target His81 (UniProt position 112, NTIVLHHGPLY). The experiment in a line: NMR.
[1] abbreviates: complex with 3'-cytidine monophosphate (3'-CMP).

Bounds are passed on as bounds.

By pKa is commonly meant the pH at which an ionisable group is half protonated. For “Cyclophilin (cyclophilin A) (not stated (probably Homo sapiens))”, the pKa in the data set with His54 was under 4.2.
Regarding “FK506 binding protein (FKBP) (not stated (probably Homo sapiens))”, the pKa with His25 was under 3.6.
Take “Ribonuclease A (RNase A, pancreatic ribonuclease) (Bos taurus)”: the pKa in the data set with His119 (setting [1]) was 7.0; with His119 (free enzyme), 6.3; with His12 (setting [1]) it was 7.1; with His12 (free enzyme), 5.8.
For the substance “Phosphatidylinositol-specific phospholipase C (PI-PLC) (Bacillus cereus)”, the pKa in the data set with His61 and in the data set with His81 was under 3 each time.
